Target: T1, IF3 Thermus thermophilus (Thermus thermophilus, UniProt Q5SKU2 1-171)
T1 construct: Translation initiation factor IF3 of Thermus thermophilus; residues 3 to 170 were modelled (N-terminal domain, helical linker, C-terminal domain); also called initiation factor 3; NTD; source: E. coli BL21(DE3), purified (same protocol as IF1: 65°C heat step, ion exchange, hydroxylapatite)
T1 sequence: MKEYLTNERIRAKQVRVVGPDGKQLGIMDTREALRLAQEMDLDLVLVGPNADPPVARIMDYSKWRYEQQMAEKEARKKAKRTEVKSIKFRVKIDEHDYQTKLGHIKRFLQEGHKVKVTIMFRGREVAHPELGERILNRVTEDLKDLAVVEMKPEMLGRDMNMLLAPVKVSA
Test: cryo-EM structure; Sample 1 (without IF2): T. thermophilus 30S, IF1, IF3, mRNA and fMet-tRNA mixed 1:4:4:3:3, complex at 120 nM, 5 mM HEPES pH 7.5, 10 mM MgAc, 50 mM KCl, 10 mM NH4Cl, 6 mM 2-mercaptoethanol; put on grids without further purification; classes PIC-1A to PIC-4
Conditions: both partners purified

B1: IF1 Thermus thermophilus (natural protein)
chain: MAKEKDTIRTEGVVTEALPNATFRVKLDSGPEILAYISGKMRMHYIRILPGDRVVVEITPYDPTRGRIVYRK
notes: Translation initiation factor IF1 of Thermus thermophilus, expressed as in Carter et al., 2001; also called initiation factor 1; source: E. coli BL21(DE3), purified (65°C heat step, ion exchange, hydroxylapatite)
  binding result: binds

Source: paper PMC5037330, “Large-Scale Movements of IF3 and tRNA during Bacterial Translation Initiation” (Cell, 2016)
